# From US6498233 (dated 1996)
# B1: scFv(FRP5)-DETA-DGAL4 protein (scFv)
# chain: DYKDDDDKLHHHHHHKLQVQLQQSGPELKKPGETVKISCKASGYPFTNYGMNWVKQAPGQGLKWMGWINTSTGESTFADDFKGRFDFSLETSANTAYLQINNLKSEDMATYFCARWEVYHGYVPYWGQGTTVTVSSGGGGSGGGGSGGGGSDIQLTQSHKFLSTSVGDRVSITCKASQDVYNAVAWYQQKPGQSPKLLIYSASSRYTGVPSRFTGSGSGPDFTFTISSVQAEDLAVYFCQQHFRTPFTFGSGTKLEIKALEGGSLAALTAHQACHLPLETFTRHRQPRGWEQLEQCGYPVQRLVALYLAARLSWNQVDQVIRNALASPGSGGDLGEAIREQPEQARLALTLAAAESERFVRQGTGNDEAGAANADEKLLSSIEQACDICRLKKLKCSKEKPKCAKCLKNNWECRYSPKTKRSPLTRAHLTEVESRLERLEQLFLLIFPREDLDMILKMDSLQDIKALLTGLFVQDNVNKDAVTDRLASVETDMPLTLRQHRISATSSSEESSNKGQRQLTVSSSDYKDEL
# Biological target: p185 erbB-2 on SK-BR-3 human breast carcinoma cells (human, UniProt P04626 23-1255)
binder,measurement,value
B1,EC50,20 nM
